The results in this text go back to patent US20110086026A1 (ROCHE PALO ALTO, published 2011).

Residue numbers refer to the chain shown, from its start.

Test [1] deals with T1, hIL-13Rα2:hFc chimeric protein (R&D Systems, UK) (human, UniProt Q14627 27-343).
T1 construct: Bought; not shown: human Fc (hFc) of the bought chimera
T1 sequence (looked up): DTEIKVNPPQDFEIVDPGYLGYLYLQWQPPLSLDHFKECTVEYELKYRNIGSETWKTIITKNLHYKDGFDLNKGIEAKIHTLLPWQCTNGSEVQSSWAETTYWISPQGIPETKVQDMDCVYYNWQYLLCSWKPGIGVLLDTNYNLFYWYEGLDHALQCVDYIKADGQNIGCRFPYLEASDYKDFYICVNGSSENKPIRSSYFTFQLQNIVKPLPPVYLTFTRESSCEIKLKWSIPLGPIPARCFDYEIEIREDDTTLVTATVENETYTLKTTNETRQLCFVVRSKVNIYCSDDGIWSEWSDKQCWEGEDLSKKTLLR
Kind of test: ELISA, immobilized hIL-13Rα2:hFc, detection with anti-human kappa-POD, OD 405. The method, then:
(§1) Chimeric proteins hIL-13Rα2:hFc and hIL-4Rα:hFc (R&D Systems, UK) were dissolved in PBS (1 μg/ml) and allowed to adsorb to microtiter plates (NUNC Maxisorb) by incubation over night at 4° C. After washing the plates with washing buffer (WB=0.9% NaCl; 0.1% Tween® 20) unspecific binding sites were blocked by addition of 100 μl incubation buffer (IB=PBS with 1% crotein C and 0.1% Tween® 20) and incubation for 30 min at room-temperature (RT). Then serially diluted HuMab and control antibodies (100 μl/well; dilutions in IB) were added and incubated for 1 hour at RT. The plates were again washed and bound antibody was detected by incubation with peroxidase conjugated rabbit anti-human kappa (DAKO, Denmark) in a final dilution of 1:500 in IB. After incubation for 1 h at RT and a subsequent washing step, the plates were developed with ready-to-use ABTS® solution (Roche Diagnostics GmbH, DE) at RT in the dark. Absorbance was measured at 405 nm after absorbance of the highest concentration reached a sufficient OD.
(ELISA stands for enzyme-linked immunosorbent assay.)

Test [2] concerns the target FcγRIIIa (CD16) on Natural Killer (NK) cells (UniProt P08637). Kind of test: FACS on NK cells in PBMC, 20 µg/ml, with 20 µg/ml of the blocking anti-CD16 clone 3G8 as competitor.
The target is the same in test [3]. Kind of test: FACS on NK cells in PBMC, maximum binding at 20 µg/ml.
Test [4] addresses T2, extracellular domain of hIL-13Rα1 cleaved from hIL-13Rα1:hFc chimeric protein (human, UniProt P78552 22-343).
T2 construct: extracellular domain; also called Cleaved hIL-13Rα1 molecules (MW 40 kDa)
T2 sequence (looked up): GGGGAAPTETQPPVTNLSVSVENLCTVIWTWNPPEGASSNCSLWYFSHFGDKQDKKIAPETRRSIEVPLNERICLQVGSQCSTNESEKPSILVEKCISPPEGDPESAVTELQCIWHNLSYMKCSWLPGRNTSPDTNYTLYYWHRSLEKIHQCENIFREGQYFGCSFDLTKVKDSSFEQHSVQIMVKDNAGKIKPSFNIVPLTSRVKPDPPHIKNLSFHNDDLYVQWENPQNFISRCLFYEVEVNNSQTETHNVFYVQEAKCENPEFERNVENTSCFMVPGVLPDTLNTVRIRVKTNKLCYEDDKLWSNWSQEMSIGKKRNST
Kind of test: SPR Biacore 3000, CM5 chip, HuMab captured by anti-hFcγ, cleaved hIL-13Rα1 as analyte, bivalent analyte model. The protocol:
(§2) In these experiments, the affinity of the original IgG1 derived from hybridoma was compared with the affinities of the recombinant variant IgG1-Ala-Ala. For interaction analysis, a Biacore 3000 instrument was used. Running and reaction buffer was HBS-P (10 mM HEPES, 150 mM NaCl, 0.005% polysurfactant P, pH 7.4) at 25° C. Capturing antibody molecules (anti-hFcγ) were amine-coupled at a concentration of 20 μg/ml at a flow rate of 5 μl/min for 20 minutes. HuMabs were injected at concentrations of 10 μg/ml at a flow rate of 10 μl/min for 1 minute. Cleaved hIL-13 Rα1 molelcules (analyte) were injected for five minutes at eight concentrations between 1.56 nM and 200 nM and washed with HBS-P for five minutes. Regeneration of the surface was accomplished by two injections of 100 mM HCl for 1 min each. The chip, assay format and sequence of injections and kinetic data correspond to the description in Table 4. Kinetic data were calculated by fitting kinetic data to a bivalent analyte binding model.
(In SPR one partner is held on a chip, and binding of the other changes the refractive index at the surface.)

In test [5] the target is T3, hIL-4Rα:hFc chimeric protein (R&D Systems, UK) (human, UniProt P24394 26-232).
T3 construct: Bought; not shown: human Fc (hFc) of the bought chimera
T3 sequence (looked up): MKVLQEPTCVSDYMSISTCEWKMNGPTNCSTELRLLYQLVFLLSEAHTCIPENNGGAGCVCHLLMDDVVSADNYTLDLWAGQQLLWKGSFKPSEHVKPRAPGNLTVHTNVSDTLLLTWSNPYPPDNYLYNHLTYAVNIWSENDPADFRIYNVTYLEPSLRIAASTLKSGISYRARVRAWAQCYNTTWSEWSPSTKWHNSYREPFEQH
Kind of test: ELISA, immobilized hIL-4Rα:hFc, detection with anti-human kappa-POD, OD 405. The protocol: as §1

The target in test [6] is T4, hIL-13Rα1:hFc chimeric protein (R&D Systems, UK) (human, UniProt P78552 22-343).
T4 construct: extracellular domain; Bought; also called chimeric hIL-13Rα1:hFc; not shown: human Fc (hFc) of the bought chimera
T4 sequence (looked up): T2 sequence (looked up)
Kind of test: ELISA, immobilized hu IL-13Ra1:Fc, detection with anti-human kappa-POD, OD 405.

For test [7], the target named is T2, extracellular domain of hIL-13Rα1 …. Kind of test: SPR Biacore 3000, CM5 chip, HuMab captured by anti-hFcγ, cleaved hIL-13Rα1 as analyte, bivalent analyte model (kd1). The method, then: as §2
The target is the same in test [8]. Kind of test: SPR Biacore 3000, CM5 chip, HuMab captured by anti-hFcγ, cleaved hIL-13Rα1 as analyte, bivalent analyte model (ka1). The method, then:
as §2

Chain of FcγRIIIa (CD16) on Natural Killer (NK) cells (P08637 17-254 limits assumed): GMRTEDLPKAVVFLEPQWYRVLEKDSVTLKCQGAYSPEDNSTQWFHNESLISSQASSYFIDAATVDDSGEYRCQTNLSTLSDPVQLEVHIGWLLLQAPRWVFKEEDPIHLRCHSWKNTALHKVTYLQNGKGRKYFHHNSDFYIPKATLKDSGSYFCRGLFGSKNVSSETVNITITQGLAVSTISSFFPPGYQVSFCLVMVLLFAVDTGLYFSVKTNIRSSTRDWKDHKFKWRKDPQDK

B1: HuMab LC5002-005 (antibody, V domains shown)
VH: EVQVLDSGGGLVQPGGSLRLSCTASGFTFRLYTMSWVRQTPGRGLEWVSGISGSGLSTYFADSVKGRFTISRDNSKNTVYLQMNSLRAEDTAVYYCAKEGDWIYFDSWGQGTLVIVSS
VL: DIQMTQSPSSLSASVGDRVTITCRASQGISSWLAWYQQKPEKAPKSLIYAASSLQSGVPSRFSGSGSGTDFTLTISSLQPEDFATYYCQQYNSHPPTFGQGTKLEIK
notes: Only the variable domains are tied to this antibody; also called hu-MAB<h-IL-13Ralpha>LC.5002-005 (DSM ACC2711)
As to B1, the binding result in test [1] and in test [5] was “no binding (tested: 3.3 nM)” throughout. The values for the Bmax (MFI) in test [2] and in test [3] were 260 MFI and 581 MFI, respectively. The molecule further came in with a Kd in test [4] of 2.7 nM. Besides, the 50% effective concentration (EC50 (read off the curve)) (as a rule, the concentration giving half of the maximal effect) in test [6] was roughly 0.4 nM. Further, the koff – broadly, the rate constant with which the complex falls apart – in test [7] was found to be 0.00036 s⁻¹. Further, the on-rate constant (kon) (as a rule, a measure of how fast the partners come together) in test [8] was determined as 133000 M⁻¹ s⁻¹.

B2: HuMab LC5002-003 (antibody, V domains shown)
VH: EVQLLESGGDLIQPGGSLRLSCAASGFTFNIYAMNWVRQAPGKGLEWVSVISGRGITTYYADSVKGRFTISRDNSKNTLYLQMDSLRAEDTAVYYCAKGSSYWTDFDYWGQGTLVTVSS
VL: B1 VL with H94Y, P96W, L104V
notes: Human IgG1 kappa from a HuMab mouse hybridoma; Only the variable domains are tied to this antibody; also called LC50002-003; hu-MAB<h-IL-13Ralpha>LC.5002-003 (DSM ACC2710)
On to B2, for which the binding result in test [1] and in test [5] was “no binding (tested: 3.3 nM)” in each case. In addition, the “EC50 (read off the curve)” value in test [6] is roughly 0.4 nM.
